Test results as given in patent US12493026B2, “Tissue engineered 3D models for cancer metastasis” (The Board of Trustees of the Leland Stanford Junior …, priority 2019, dated 2025).

What was measured:
[1] = system: hMSC-derived osteoblasts; experiment: Osteoblast cell proliferation/survival in 3D coculture (bioluminescence imaging); type: cell-based, human; settings: 1 μg/mL PTH for 6 hours every 48 hours, FIG. 8(A)
Description: (§1) Cocultures of MDA-MB-231 and tissue engineered bone were developed as previously described. Upon starting the coculture, scaffolds were treated with 1 μg/mL of parathyroid hormone (PTH) or PBS control for 6 hours every 48 hours. Breast cancer cell invasion into tissue-engineered bone was monitored using fluorescence microscopy every other day for 7 days. Bone mineralization was monitored using X-ray microcomputed tomography (GE CT120) with setting of 100 kV X-ray voltage, 500 μA current, 50 μm voxel resolution and continuous 360° rotation scanning. Reconstructed 3D μCT images were analyzed for changes in bone mineral density using Parallax Microview. Osteoblast cell proliferation was tracked over the culture period using bioluminescence imaging.

[2] = system: tissue engineered bone; experiment: Breast cancer-induced bone resorption in 3D tri-culture model of osteoclasts, osteoblasts and breast cancer cells (μCT); type: cell-based; settings: 14 days
Description: In order to assess the effect of breast cancer in promoting osteoclast activation and bone resorption, the bone mineral density of (1) tissue engineered bone alone (No BrCa), (2) tissue engineered bone+MDA-MB-231 breast cancer cells, and (3) tissue engineered bone+MCF-7 breast cancer cells were evaluated. Tissue engineered bone was developed as described previously. After 28 days in osteogenic media, a 2 mm diameter disk was cut out from the center of tissue engineered bone, leaving an empty hole in the center. Prior to introducing breast cancer cells, 1 million osteoclasts were seeded directly over tissue engineered bone and incubated for 1 hour to allow cells to attach. […] Bone mineralization was monitored using X-ray microcomputed tomography (GE CT120) with setting of 100 kV X-ray voltage, 500 μA current, 50 μm voxel resolution and continuous 360° rotation scanning. Reconstructed 3D μCT images were analyzed for changes in bone mineral density using Parallax Microview.
Validation was performed of a 3D tri-culture model that includes osteoclasts, osteoblasts, and breast cancer cells to mimic clinical outcomes effects of parathyroid hormone treatment on breast cancer patients.
Compared to the bi-culture model earlier (osteoblasts+breast cancer cells), this tri-culture model involves additional osteoclasts seeded on top of the scaffolds. […]

[3] = system: MDA-MB-231 breast cancer cells; experiment: Breast cancer cell proliferation in 3D coculture (bioluminescence imaging); type: cell-based; settings: 1 μg/mL PTH for 6 hours every 48 hours, FIG. 7(B)
From the text: To evaluate the effect of breast cancer cell aggressiveness in their invasion rate into bone, MDA-MB-231 breast cancer cells (more aggressive) were compared to MCF-7 breast cancer cells (less aggressive). Tissue engineered bone was generated as described previously. MDA-MB-231 and MCF-7 breast cancer cells were encapsulated into gelatin μRBs forming 2 mm diameter disks, which were introduced into the center of tissue-engineered bone and placed in EMEM growth media for 7 days. Breast cancer invasion into all groups was performed using fluorescence imaging at the interface between the outer and inner disks over 7 days. Cell proliferation was tracked over the culture period using bioluminescence imaging.
as §1, with “Osteoblast cell proliferation was tracked over the culture period using bioluminescence imaging.” left out

[4] = system: MDA-MB-231 breast cancer cells; experiment: Breast cancer cell invasion into tissue engineered bone in spatially patterned 3D coculture (fluorescence imaging); type: cell-based; settings: 1 μg/mL PTH for 6 hours every 48 hours; MDA-MB-231 coculture, 7 days; FIG. 7(A)
From the text: To mimic the microanatomical structures of breast cancer invasion into bone through bone marrow/long bone interface (FIGS. 1A and 1B), a “doughnut shape” 3D co-culture model was developed with mesenchymal stem cell (MSC)-formed tissue engineered bone in the outside ring, and breast cancer cells in the center (FIG. 1C). To facilitate imaging the two cell populations, human MSCs were fluorescently labelled red and breast cancer cells were labeled green (GFP). Gelatin μRBs were synthesized as previously reported. Freeze-dried μRBs were rehydrated in PBS containing 0.05% lithium phenyl-2,4,6-trimethylbenzoylphosphinate photoinitiator. […] Breast cancer invasion into tissue engineered bone was monitored using fluorescence imaging at the interface between the outer and inner disks.
as §1, with “Upon starting the coculture, scaffolds were treated with 1 μg/mL of parathyroid hormone (PTH) or PBS control for 6 hours every 48 hours.” left out, “Osteoblast cell proliferation was tracked over the culture period using bioluminescence imaging.” left out

[5] = system: breast cancer cell-bone metastasis; settings: mouse models; cited from earlier work
[6] = system: tissue engineered bone; experiment: Bone mineral density of tissue engineered bone in 3D coculture (μCT); type: cell-based, human; settings: 1 μg/mL PTH for 6 hours every 48 hours, FIG. 8(C)
Description: Bone mineral density was evaluated over 14 days by comparing tissue engineered bone cultured with (+BrCa) and without (−BrCa) breast cancer cells. Cocultures of tissue engineered bone with MDA-MB-231 were generated as described previously and cultured in EMEM GM for 14 days. Bone mineralization was monitored using X-ray microcomputed tomography (GE CT120) with setting of 100 kV X-ray voltage, 500 μA current, 50 μm voxel resolution and continuous 360° rotation scanning. Reconstructed 3D μCT images will be analyzed for changes in bone mineral density using Parallax Microview.
as §1

B1: parathyroid hormone (protein, UniProt P01270 32-115, looked up)
Parathyroid hormone: SVSEIQLMHNLGKHLNSMERVEWLRKKLQDVHNFVALGAPLAPRDAGSQRPRKKEDNVLVESHEKSLGEADKADVNVLTKAKSQ
modifications: Parathyroid hormone
notes: parathyroid hormone; drug that reduces breast cancer-bone metastasis in vivo
osteoblast cell survival in the presence of breast cancer invasion [1]: enhances
breast cancer-induced bone resorption (bone loss) ([2]; continuous PTH treatment (cPTH)): does not reduce
breast cancer-induced bone resorption (bone loss) ([2]; intermittent PTH treatment (iPTH)): can reduce
breast cancer cell proliferation [3]: does not impact
breast cancer cell invasion into tissue engineered bone [4]: significantly reduces
breast cancer cell-bone metastasis [5]: specifically reduce
breast cancer cell-induced reduction in bone mineralization (bone mineral density) [6]: prevents
